Measurements: the supplement of paper PMC12042874
± gives the uncertainty stated by the source.

Assay: amyloid nucleation score (Sup35N fusion, yeast selection) (log enrichment); library NNK3; higher = more nucleation; inactive = no reads after selection
In short: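 Using DiMSum, nucleation scores were taken as the log enrichment of output over input reads, centred on the mode score of non-aggregating sequences. The input and output reads came from Illumina sequencing of plasmid inserts, with sequences under 100 input reads excluded. The yeast were psi-negative, expressed Sup35N fused to peptides of 20 random codons, were induced with 100 μM copper sulfate for 24 hours, and were grown 7 days at 30°C on medium lacking adenine and uracil.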

Substance: MFLQSGDFPM
- amyloid nucleation score: inactive

Substance: ASFKFGG
- amyloid nucleation score: inactive

Substance: IRFSCSSSG
- amyloid nucleation score: inactive

Substance: SSYLI
- amyloid nucleation score: inactive

Substance: CCMSSIIVCYCWMYGTTKLM
- amyloid nucleation score: 0.927 ± 0.1

Substance: CLLCGSRHFRHRLGFVSYRI
- amyloid nucleation score: inactive

Substance: IHCLLLDRVTNLFLTMQAG
- amyloid nucleation score: inactive

Substance: YLVTIILI
- amyloid nucleation score: 1.32 ± 0.16

Substance: ASGDLAGSKLVSYRVATLIN
- amyloid nucleation score: inactive

Substance: LLMKMHDAIAG
- amyloid nucleation score: inactive

Substance: DLAINGSAAQTVVLRAERSY
- amyloid nucleation score: inactive

Substance: MASIVFFCMPSETNFVV
- amyloid nucleation score: inactive

Substance: LHSVGVPMAPVKGTMWERER
- amyloid nucleation score: inactive

Substance: TKYRPCYNIVYSMFED
- amyloid nucleation score: inactive

Substance: SQFDAYPCKMFHVYKNYP
- amyloid nucleation score: inactive

Substance: VGAGWYN
- amyloid nucleation score: inactive

Substance: SYSVIMNHMKRWNPGDTSKW
- amyloid nucleation score: inactive

Substance: SPCIVLVQKLCGLGCRFVSV
- amyloid nucleation score: 1.68 ± 0.11

Substance: LYFNRRWWPMRWVRDSPRPS
- amyloid nucleation score: 0.024 ± 0.96

Substance: VLKKGGVFVWFAWECNTCSD
- amyloid nucleation score: inactive

Substance: LVMHMRLAWRECDHVSKQMR
- amyloid nucleation score: 0.883 ± 0.15

Substance: WAHLGLDNMYKVLCSRGANA
- amyloid nucleation score: inactive

Substance: SFGYLSAPRFIVGKVSHLGC
- amyloid nucleation score: inactive

Substance: RLMVL
- amyloid nucleation score: inactive

Substance: AERAWYGGCLNRILLSVCCH
- amyloid nucleation score: inactive

Substance: GSEQSVEDGFAWMKDTYFCL
- amyloid nucleation score: inactive

Substance: HNCLVLVCDTCLSVYWNFSS
- amyloid nucleation score: 2.83 ± 0.052

Substance: PMYPGIVGSRAIMQRLVGCC
- amyloid nucleation score: inactive

Substance: VENKMFDRGGFYVWMCGLSD
- amyloid nucleation score: inactive

Substance: LNRSSFHLELITSTCKVFLV
- amyloid nucleation score: inactive

Substance: TTRKNLKSGLVVSL
- amyloid nucleation score: inactive

Substance: VGNGYTMSG
- amyloid nucleation score: inactive

Substance: TVSICSGVSRVWKHLHYMMV
- amyloid nucleation score: inactive

Substance: VMQHNVGLFNDHKYDSCRAC
- amyloid nucleation score: inactive

Substance: IMVAMGW
- amyloid nucleation score: inactive

Substance: GDVRLFTCRMLGILFFSIT
- amyloid nucleation score: inactive

Substance: NFEIFSRVQWDLC
- amyloid nucleation score: inactive

Substance: DDHLGKVGSGFRIGICTLQN
- amyloid nucleation score: inactive

Substance: AFYFRT
- amyloid nucleation score: inactive

Substance: TAFYSRYFWVNLICRRPSFK
- amyloid nucleation score: inactive

Substance: INSDSSQFSYSSLGKVIGMY
- amyloid nucleation score: inactive

Substance: GTMIRQLERELSHMREVTYI
- amyloid nucleation score: inactive

Substance: GDNRFLYELFLPHLNVVSNL
- amyloid nucleation score: inactive

Substance: CDRTIMRSYDPAL
- amyloid nucleation score: 1.16 ± 0.099

Substance: THHRPWWYHSEVGVRCMNEV
- amyloid nucleation score: 0.049 ± 0.96

Substance: RAFFLVIAIFNKVEVVSGST
- amyloid nucleation score: 1.15 ± 0.14

Substance: GSMSSCLVKRLNC
- amyloid nucleation score: inactive

Substance: FYMYLTSVCA
- amyloid nucleation score: inactive

Substance: PTGSFMLLET
- amyloid nucleation score: inactive

Substance: VSATSQYQSICLSLNTKNRF
- amyloid nucleation score: inactive

Substance: ILTHIVWLFVRLSCMNWNWL
- amyloid nucleation score: inactive

Substance: SYYSRIRLLRRVRVSYYYVR
- amyloid nucleation score: 0.801 ± 0.22

Substance: HERILATGVFEMDLGMLVFR
- amyloid nucleation score: inactive

Substance: GDLKLGLVIYESCGSMVMSW
- amyloid nucleation score: inactive

Substance: IWIMLHSCELWYADKADLDG
- amyloid nucleation score: inactive

Substance: RVFGCKKGGSRLW
- amyloid nucleation score: inactive

Substance: ESRLIISKDGRRSMSKHGGP
- amyloid nucleation score: inactive

Substance: TLGRNCLVQRSCMGRSSECD
- amyloid nucleation score: inactive

Substance: NIIFRTW
- amyloid nucleation score: inactive

Substance: PTGGKKVGIASTFSLSVGTV
- amyloid nucleation score: -0.08 ± 0.27

Substance: HDDISISESIFRRLQIRVIL
- amyloid nucleation score: inactive

Substance: TYVKYKRILQQGIYAVVMNV
- amyloid nucleation score: inactive

Substance: YVSHVSISVSSMLCYGGQSW
- amyloid nucleation score: 1.93 ± 0.096

Substance: DLSIRKFHGGSMDSLNMEYM
- amyloid nucleation score: inactive

Substance: AILEVLT
- amyloid nucleation score: 0.671 ± 0.17

Substance: QTGLVMWQLTFTYPLHVWNM
- amyloid nucleation score: inactive

Substance: QSEALNNFWVGSILSYMVLG
- amyloid nucleation score: inactive

Substance: VLRIFISWCSVQLSKRLWWT
- amyloid nucleation score: inactive

Substance: NKVCLDTSAVYYSFRDKDG
- amyloid nucleation score: inactive

Substance: NEVMGFFNDQWRMIWWGYPR
- amyloid nucleation score: inactive

Substance: AYRLTLCLPSWVWL
- amyloid nucleation score: inactive

Substance: TNRIMNPVYDILWSGMGQPC
- amyloid nucleation score: inactive

Substance: KSTSFTYFLLNIRLMGYCPC
- amyloid nucleation score: 0.725 ± 0.16

Substance: NVVFV
- amyloid nucleation score: inactive

Substance: VNYRSNIFNHYCSFSRN
- amyloid nucleation score: 0.934 ± 0.11

Substance: KNDGTIVQM
- amyloid nucleation score: inactive

Substance: NGVMGRGLYTKSQRSYCDNN
- amyloid nucleation score: inactive

Substance: KSICELVIRRNFVSLNIATY
- amyloid nucleation score: -0.336 ± 0.7

Substance: ARHVENSAKGFVGYLRRMHV
- amyloid nucleation score: inactive

Substance: GNELQSEFLDFLTCRERGKG
- amyloid nucleation score: inactive

Substance: ISGFKIVSYMNKIVVSTMGL
- amyloid nucleation score: inactive

Substance: GTEYLV
- amyloid nucleation score: inactive

Substance: ILTLTSRPLLLNLKKPFWVF
- amyloid nucleation score: inactive

Substance: VFTFAWMLNRVISNYHPTIP
- amyloid nucleation score: inactive

Substance: LSMFGGNASALL
- amyloid nucleation score: inactive

Substance: VCNMYFSFIRNLRGFNRNQC
- amyloid nucleation score: 2.06 ± 0.062

Substance: RYDTNSRVRIIVSNF
- amyloid nucleation score: inactive

Substance: SSSATGPAYGNKQATFRRLV
- amyloid nucleation score: -0.457 ± 0.9

Substance: MCNFCQLFFTLLITSLFKLG
- amyloid nucleation score: 0.807 ± 0.18

Substance: FVESSDLMRMSWFWWTGWDL
- amyloid nucleation score: inactive

Substance: ADNRHIFFIGFQRVLSFSWA
- amyloid nucleation score: 1.25 ± 0.1

Substance: SPLNQVSGYIMFWYSGT
- amyloid nucleation score: inactive

Substance: GIMSCQ
- amyloid nucleation score: 0.021 ± 0.88

Substance: LTNSYLDMLRM
- amyloid nucleation score: inactive

Substance: TFLCSENQAAMWGIRTGSLL
- amyloid nucleation score: inactive

Substance: LYNVYGSRA
- amyloid nucleation score: inactive

Substance: ARLVYFFLYGLSCRMHCLCW
- amyloid nucleation score: inactive

Substance: IFGSAFFRYYLCITQFCEYS
- amyloid nucleation score: inactive

Substance: WNLVPSHMFFV
- amyloid nucleation score: inactive

Substance: IVCGISMIS
- amyloid nucleation score: inactive

Substance: YENCSMYYSTTGIPAMCEIT
- amyloid nucleation score: inactive

Substance: SRGTRSK
- amyloid nucleation score: inactive

Substance: YNLGRNS
- amyloid nucleation score: inactive

Substance: MMWDL
- amyloid nucleation score: inactive

Substance: MWSHFFSQYSGWRFYTKSRF
- amyloid nucleation score: inactive

Substance: VLRVDRGGTIMRYPCLG
- amyloid nucleation score: inactive

Substance: NYYNLYCLTVLQKRLQAGMQ
- amyloid nucleation score: inactive

Substance: CQWANY
- amyloid nucleation score: -0.508 ± 1

Substance: QEIRTVTGALTDTWIVFICR
- amyloid nucleation score: inactive

Substance: SNMSMMSYYAGRDPRPVSFL
- amyloid nucleation score: inactive

Substance: FFARDVRSN
- amyloid nucleation score: inactive

Substance: HWGTMNGSPSFFPITVRCGG
- amyloid nucleation score: inactive

Substance: YWFGWKGGRSVRRVSWSADW
- amyloid nucleation score: 0.13 ± 0.66

Substance: FSFCIGRMCDLQALTASCLN
- amyloid nucleation score: inactive

Substance: YIMCCGV
- amyloid nucleation score: 1.61 ± 0.073

Substance: VLYSCERKELVIGMKVLVWE
- amyloid nucleation score: inactive

Substance: NINYTYLESVLIMGYMFREL
- amyloid nucleation score: 2.21 ± 0.095

Substance: HNITPESAKVCKVRRCLGSD
- amyloid nucleation score: 0.619 ± 0.2

Substance: CKDSDSTIPRMLLLRLKTEL
- amyloid nucleation score: inactive

Substance: RYLLIPAVGLK
- amyloid nucleation score: inactive

Substance: SFGILVYIRTAMPCTNIANY
- amyloid nucleation score: inactive

Substance: RINWTMMCKTFLRFINKS
- amyloid nucleation score: inactive

Substance: RYDLSVSIATMVNVYFLLRG
- amyloid nucleation score: inactive

Substance: KFANYSPRDGTCGTDAHVSD
- amyloid nucleation score: inactive

Substance: MGNRNDSNLTRCWESTLVVK
- amyloid nucleation score: inactive

Substance: HVNSMA
- amyloid nucleation score: inactive

Substance: SIRVSVMFNIRKKVFDLQRF
- amyloid nucleation score: inactive

Substance: LYMNATLSYCGTYCMVTQMV
- amyloid nucleation score: inactive

Substance: LKDNPNSLWC
- amyloid nucleation score: -0.224 ± 1.1

Substance: GVDRRIR
- amyloid nucleation score: inactive

Substance: MAMDCLISTALVLLVKYASV
- amyloid nucleation score: inactive

Substance: VFAARAKRY
- amyloid nucleation score: inactive

Substance: IYNRNGRF
- amyloid nucleation score: inactive

Substance: VGYMALQETILVIVDDGVTE
- amyloid nucleation score: inactive

Substance: NENHGCYMGRVFQCGIYEYV
- amyloid nucleation score: 1.44 ± 0.13

Substance: GPNDLSMAFRTLYDQAVPYV
- amyloid nucleation score: -0.521 ± 1

Substance: THGNMCYEWIPKVPTIISVG
- amyloid nucleation score: inactive

Substance: LWNVLHDNSHCSLGSTPLGQ
- amyloid nucleation score: inactive

Substance: RNKVHRNG
- amyloid nucleation score: inactive

Substance: VCTTMCDTRWVTISYF
- amyloid nucleation score: inactive

Substance: TPRKVVDNGGLIDFKVYRLL
- amyloid nucleation score: inactive

Substance: FRWNNCGSMVRISTPSYSFL
- amyloid nucleation score: inactive

Substance: YSSLLWCKIES
- amyloid nucleation score: inactive

Substance: TVLVTMFKIEEQLTF
- amyloid nucleation score: inactive

Substance: RIYGHVLSRDANFVRLWVGT
- amyloid nucleation score: inactive

Substance: ILVCCISVETTHDNGPEVVG
- amyloid nucleation score: 2.22 ± 0.061

Substance: ASWKLITCQNSAFR
- amyloid nucleation score: inactive

Substance: AGGCDRYVHPRFLDKRSSWS
- amyloid nucleation score: inactive

Substance: TGPFGINLRGR
- amyloid nucleation score: inactive

Substance: FFTMSKI
- amyloid nucleation score: inactive

Substance: DCVNWTWHTTDNLVVTYSYN
- amyloid nucleation score: inactive

Substance: FLLMLFVSGVRLFDYRRFWH
- amyloid nucleation score: inactive

Substance: VWVLYGKITVPSPKARMGKT
- amyloid nucleation score: -0.083 ± 1.1

Substance: STSFCSSLDLWSQEVIVASV
- amyloid nucleation score: inactive

Substance: YNKWCLHLCLRNLSMEEGMD
- amyloid nucleation score: 1.87 ± 0.11

Substance: CYVLVMKIPSHFKGTFMWHI
- amyloid nucleation score: inactive

Substance: PEFYA
- amyloid nucleation score: inactive

Substance: SCGEYWPLLSFMNCWAP
- amyloid nucleation score: inactive

Substance: NIMVVYPFFYGFKHNWLESI
- amyloid nucleation score: inactive
